A short description of the series: amyloid nucleation score (Sup35N fusion, yeast selection) (log enrichment); library NNK3; higher = more nucleation; inactive = no reads after selection. The essentials:
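In psi-negative yeast, Sup35N fusions carrying peptides of 20 random codons were induced with 100 μM copper sulfate for 24 hours. The cells then grew 7 days at 30°C on medium lacking adenine and uracil, and plasmid inserts from input and output were Illumina-sequenced, excluding sequences with under 100 input reads. Nucleation score is the DiMSum log enrichment of output over input reads, centred on the mode score of non-aggregating sequences.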

These results are taken from the supplement of paper PMC12042874.

± gives the uncertainty stated by the source.

Regarding IWYGLDIWRPLCIGAPMVKD, the amyloid nucleation score result was “inactive”.
Then IVADAAWNAIGVSGMDSTGT, with “inactive”; and LNSIG, with “inactive”.
Then RHMPYNGLKNDKIFYILNYT, with “inactive”; and NCGVMEYGGILISYFE, with “inactive”.
Then RLKLNGAQGEFSGVWLDIWA, with “inactive”; and LYRKWRE, with “inactive”.
Turning to FFSTLVYNRRIVCWFRSGR, the amyloid nucleation score is -1.49 ± 2.5.
For GSDLSWGRYKNSRFSSSMSA, the amyloid nucleation score result was “inactive”.
For KWFAATVLSNKPREEKRMVT, the amyloid nucleation score entry is “inactive”.
Then ISKSHGYLYSNWKTCFSELS, with “inactive”.
Regarding ARVKWMVGEIWCQSDDKPLE, the amyloid nucleation score entry was “inactive”.
The same measure for KLTGQDLVVGNAFATVVYVE: “inactive”.
The same measure for MGMARWYAKWLGWVLSMYRW: “inactive”; for SCSLRYGMTGWPESKTYTAF: “inactive”; for NEHGEAGCAYEAKGAVGVKS: “inactive”.
Then RVCFLRINDGR, with 0.06 ± 0.49; and RSYIKGIFCLSAMRFQCSMS, with -0.404 ± 0.78; and AACNIN, with “inactive”.
As for FGSFQMGLWFVMNEVDQVKG, the amyloid nucleation score result was “inactive”.
Turning to LRGTD, the amyloid nucleation score entry is “inactive”.
As to LLVLRGYSDVIFKNTLYGNE, the amyloid nucleation score result was “inactive”.
Then VYYACGMDVKNFWELRLWGD, with 1.99 ± 0.063; and SFRSNVGFEVFLIATELRFC, with “inactive”; and NGHWL, with “inactive”.
As to GGTNVFGAWSHNQRILCQKG, the amyloid nucleation score entry is “inactive”.
The same measure for DFARFIPFRPDFNFWGRLTG: “inactive”.
On to IVFWRSFHKNA, for which the amyloid nucleation score entry was “inactive”.
As for SYCTYCRKAVGCHVHDEVGG, the amyloid nucleation score entry was “inactive”.
Then RGANYVFGWKITVNAFEGEC, with 0.838 ± 0.14; and QCCIMAITLDYFASPRYIVR, with 0.022 ± 0.52; and MRQIAQRCRSGNAACIGSLG, with 0.664 ± 0.23.
Then SQSGELFSDMMVLLG, with “inactive”; and YSLLSSMPLIRRRLGLYESW, with “inactive”; and CIAMGTISFQFPVLMRYYLC, with “inactive”.
The same measure for MIQIIMLEGGLSCLRHLVIT: -0.362 ± 0.8; for WFYYVM: “inactive”.
Turning to VCLFHDSLRDNYRT, the amyloid nucleation score entry was “inactive”.
In the case of LFVFIYSVSGLLDDGVGLGG, the amyloid nucleation score result is “inactive”.
Then YFFVHEKCQVGGRGGKLAKK, with “inactive”; and WFSNWYYVARDDYLISGREE, with “inactive”; and LMTNRVVL, with “inactive”.
For MISLMTYSYSRYMYIVSPVP, the amyloid nucleation score result is “inactive”.
The same measure for LDVLKMGIVV: “inactive”; for LYTNGIFYWQMGYLKVWQGI: “inactive”.
The same measure for YIAVMILLCHVKHEMSLLII: 2.71 ± 0.055; for FNFNLKFKTFGKMYFTGPES: 0.628 ± 0.25.
In the case of SLDIWGCSKGRRWSGFKI, the amyloid nucleation score entry was “inactive”.
As for SWLFVDLYSFHFCFSNYVSY, the amyloid nucleation score entry is “inactive”.
On to GVGNPGWAVLM, for which the amyloid nucleation score entry was “inactive”.
On to KWIVQAILSSEL, for which the amyloid nucleation score result was “inactive”.
On to TPHESLRTCFLTKR, for which the amyloid nucleation score entry is “inactive”.
The same measure for AFQLVHSWSFVGGTRALAVT: “inactive”.
The same measure for NLDLSGGESASWRNFSFFLK: “inactive”.
The same measure for IGNLLLGCRPSQNSLRAHTS: “inactive”; for LDFANCFLVQCL: “inactive”; for ILEVGRQCMDGFCSKFNGEY: “inactive”.
The substance YCCTLVTRCSVMNTL showed an amyloid nucleation score of 2.46 ± 0.065.
As for CSRLAQWFMLVSF, the amyloid nucleation score result was “inactive”.
On to LHIGLNS, for which the amyloid nucleation score result is “inactive”.
Substance LRGGKFNQYWIGRHGLSSVS had an amyloid nucleation score of -0.562 ± 1.1.
Then LNSKFMLASTLLAKW, with “inactive”; and IYIAKLHEFSIRYVLPVWYI, with “inactive”; and NFPGLTASMIKCGGNQCYVG, with “inactive”.
The same measure for SFFNFRMD: “inactive”.
The substance ACSLAFLHICHRHF had an amyloid nucleation score of 0.712 ± 0.39.
On to DPSNACPWGR, for which the amyloid nucleation score entry was “inactive”.
Then NVIGPSNRVTSWMVKSMQMY, with “inactive”.
In the case of FRSKLTW, the amyloid nucleation score result is “inactive”.
With NSNIQKHICVQFVKRWLEPC, the amyloid nucleation score entry is “inactive”.
For TLLGNINPLLW, the amyloid nucleation score entry is “inactive”.
The same measure for PLKCGFGPACPDFYIVEGGK: “inactive”; for FFVFSRLVYPWCGMFFLSLK: “inactive”; for LTHGAVTVFYRFIMLSFILR: “inactive”.
Then VEVRVYTFF, with 2.23 ± 0.074; and SCLTIGWLNVVSFWI, with 1.97 ± 0.082; and DHLQVHYCGRHVLGAKKFAR, with “inactive”.
The same measure for GISCNLYVINGICSWYFLVT: 1.56 ± 0.07; for YILMDFSYADLSFVLEIFFA: 0.09 ± 0.64; for DKTYYYRDDSLV: “inactive”.
On to FRYLNLKKDD, for which the amyloid nucleation score result was “inactive”.
Consider MPYDFPVVHNIDFFG, for which the amyloid nucleation score result was “inactive”.
For the substance FRFWPFSPICNWY, the amyloid nucleation score entry is “inactive”.
The same measure for VWYAYRLYQTWKITNVLIPW: “inactive”.
The same measure for IMSRCISTHLG: “inactive”; for WSQEATTM: “inactive”.
In the case of DHLWIPPWLYAPAMLWSWML, the amyloid nucleation score result was “inactive”.
For SRIGFPICLRRGYVNQDCNG, the amyloid nucleation score entry is “inactive”.
Then DEYTSNVVSNFFEIRLWFFI, with “inactive”; and APGIFPMSGMISYSLRV, with “inactive”.
On to SMLQAMEYYNIGIVYNHKIW, for which the amyloid nucleation score result is “inactive”.
As for WMLLLTV, the amyloid nucleation score entry was “inactive”.
Regarding HAGNWPSGSGRMSATRRFGW, the amyloid nucleation score result is “inactive”.
Then TYYLSMN, with “inactive”; and TTFSGETYEYYMFMCW, with 0.532 ± 0.17.
As to KGCNETWFVNPRGRYCWEFC, the amyloid nucleation score entry is “inactive”.
Consider YLHYRHYSSVCFYFSSNISN, for which the amyloid nucleation score entry was “inactive”.
